Values of other authors in US4873253A, “Phenylalanine derivative and proteinase inhibitor” (Okamoto; Shosuke, priority 1987, dated 1989).

Details: background statement; cited from earlier work

In the case of Aprotinin, the “side effects when administered to humans” value is given as “side effects such as allergic reactions”.
